This note sets out measurements from PMC10017356 (2023).

No end group written: not given here. *: point of attachment. Dansyl = CN(C)c1cccc2c(S(=O)(=O)*)cccc12

The test addresses T1, Presenilin-1 peptide (Homo sapiens).
T1 chain: Dansyl-AFHQFYI
The test is described as follows: stopped-flow kinetics (FRET).

B1: X11 PDZ1-PDZ2-ΔC 651-827 (protein)
chain: SENCKDVFIEKQKGEILGVVIVESGWGSILPTVIIANMMHGGPAEKSGKLNIGDQIMSINGTSLVGLPLSTCQSIIKGLKNQSRVKLNIVRCPPVTTVLIRRPDLRYQLGFSVQNGIICSLMRGGIAERGGVRVGHRIIEINGQSVVATPHEKIVHILSNAVGEIHMKTMPAAMYRL
One may read the Kd as the equilibrium constant for the complex coming apart. The molecule B1 had a Kd of 7 µM.

B2: X11 PDZ1 651-744 (protein)
chain: SENCKDVFIEKQKGEILGVVIVESGWGSILPTVIIANMMHGGPAEKSGKLNIGDQIMSINGTSLVGLPLSTCQSIIKGLKNQSRVKLNIVRCPP
Molecule B2 gave a Kd of 5.5 µM.
